Measurements taken from US5776888A, “Compounds and compositions for delivering active agents” (Emisphere Technologies, Inc., priority 1997, dated 1998).
Like-named read-outs stand apart in the source and are kept apart here.

Set-up: species or system rats
Details: rat, in vivo, 1 mg/kg

Substance: interferon
- Mean peak serum interferon concentration: 79±100
- Mean peak serum interferon concentration (po): 1951±1857
